Target: truncated M1 C-terminal domain ([change], aa 165-252) (influenza/A/FPV/Rostock/34) (UniProt P03487)
Assay: raster image correlation spectroscopy

In the case of “truncated M1 C-terminal domain ([change], aa 165-252) (from UniProt P03487 165-252) (domain or fragment)”, the brightness of M1 wt relative to M1-C (fold) is reported as 4.3 fold.

From article doi:10.1101/369462
